# Source: patent US20110243962A1 (GENEURO, published 2011)
# T1: MSRV complete ENV protein (ENV-T), recombinant from E. coli (MSRV (Multiple Sclerosis associated …))
# T1 chain: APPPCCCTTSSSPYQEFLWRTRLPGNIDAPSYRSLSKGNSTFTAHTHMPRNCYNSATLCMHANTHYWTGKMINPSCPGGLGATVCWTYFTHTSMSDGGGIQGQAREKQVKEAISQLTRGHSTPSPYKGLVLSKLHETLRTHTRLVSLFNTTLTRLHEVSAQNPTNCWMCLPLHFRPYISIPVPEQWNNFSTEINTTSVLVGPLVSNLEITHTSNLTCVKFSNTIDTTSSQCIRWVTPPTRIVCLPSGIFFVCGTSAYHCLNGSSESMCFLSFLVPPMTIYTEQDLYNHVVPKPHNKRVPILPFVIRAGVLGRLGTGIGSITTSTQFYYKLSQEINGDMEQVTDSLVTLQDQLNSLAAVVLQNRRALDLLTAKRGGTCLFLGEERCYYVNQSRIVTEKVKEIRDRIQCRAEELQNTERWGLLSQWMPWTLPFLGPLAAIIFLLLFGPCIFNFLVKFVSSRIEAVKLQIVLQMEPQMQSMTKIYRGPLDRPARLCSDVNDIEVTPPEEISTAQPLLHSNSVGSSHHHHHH
# T2: MSRV ENV surface domain fragment (ENV-SU), recombinant from E. coli (MSRV (Multiple Sclerosis associated …))
# T2 chain: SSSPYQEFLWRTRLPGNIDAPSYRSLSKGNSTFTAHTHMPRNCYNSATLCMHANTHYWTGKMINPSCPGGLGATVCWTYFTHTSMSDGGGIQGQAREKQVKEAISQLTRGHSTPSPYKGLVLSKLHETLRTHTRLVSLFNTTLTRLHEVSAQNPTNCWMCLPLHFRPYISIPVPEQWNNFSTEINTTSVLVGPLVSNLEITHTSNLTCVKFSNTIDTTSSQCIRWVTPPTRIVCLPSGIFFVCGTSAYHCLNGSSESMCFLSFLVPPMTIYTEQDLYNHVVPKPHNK
# B1: Humanized GNb AC1 IgG4 antibody (stabilized, H2 S241P heavy chain and VK3 light chain) (antibody, V domains shown)
# VH: QVQLVQSGAEVKKPGSSVKVSCKASGYTFTDYEMHWVRQAPGQGLEWIGAVAPETGGTAYNQKFKGRATITADKSTSTAYMELSSLRSEDTAVYYCTSTVVPFAYWGQGTLVTVSS
# VL: QIQLTQSPSSLSASVGDRVTITCSASSSVSYMYWYQQKPGKAPKAWIYRTSNLASGVPSRFSGSGSGTDYTLTISSLQPEDFATYYCQQYQSLPLTFGGGTKVEIKR
# What was measured:
# [1] = target: T1, MSRV complete ENV protein (ENV-T), …; assay: cell-based or functional assay
# [2] = target: T2, MSRV ENV surface domain fragment …; assay: cell-based or functional assay
binder,measurement,setting,value
B1,"IL-6 at 24 h in PBMC culture with ENV-T 0.1 ug/ml, MAb ratio 10/1 (no antibody: 4363)",[1],2910
same,"IFN-g at 72 h in PBMC culture with ENV-SU 0.5 ug/ml, MAb ratio 10/1 (no antibody: 336)",[2],46
